Target: mGCSF (R&D Systems Cat#414-CS) (mouse (printed as 'm')) (UniProt P09920)
Assay: cell-based or functional assay

Sequence of UniProt P09920 (P09920 31-208 limits assumed): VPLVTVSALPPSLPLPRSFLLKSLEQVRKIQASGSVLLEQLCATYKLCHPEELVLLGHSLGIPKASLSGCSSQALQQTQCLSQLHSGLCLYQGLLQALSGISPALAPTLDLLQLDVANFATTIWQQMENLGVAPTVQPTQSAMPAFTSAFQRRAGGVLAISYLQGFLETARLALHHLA

inhibition of mG-CSF proliferation of hG-CSFR BaF3 cells (MTS reduction), IC50 [pM]	Substance
10	Neutralizing anti-G-CSF (MAB414), R&D Systems (antibody)
22	soluble hG-CSFR-Fc protein (from UniProt Q99062 25-627) (Fc fusion)

From US20140234303A1
